Measured values published in PMC12683673 (RSC Chemical Biology, 2025).

How the values were obtained:
[1] = molecular target: the molecule itself; assay: negative-stain electron microscopy
[2] = molecular target: the molecule itself; assay: SEC

Row | Protein | stoichiometry N [1] | stoichiometry N [2]
1 | ClpX^ΔN unfoldase from Thermus thermophilus (lacks the first 52 residues) (domain or fragment) not shown | 6 | 
2 | ClpP protease from Thermus thermophilus (tetradecameric ClpP14, 300 kDa) (enzyme) not shown |  | 14
